Measurements as given in article PMC2885054.

Columns and labels:
[1] = molecular target: V5-tagged BUNV L protein expressed from a transfected cDNA construct (Bunyamwera virus) (UniProt P20470); test: co-IP; as a2, but with a viral transcript co-expressed: N from pT7riboBUNS (also full-length S antigenome RNA), or additionally pT7riboBUNM(+) or minigenome pT7riboBUNMREN(-); bands quantified by phosphorimager and normalised to expression
[2] = molecular target: Bunyamwera virus (BUNV) nucleoprotein (N) (Bunyamwera virus) (UniProt P16495); test: as above

Substance	fold more co-precipitated than in cells transfected with pTM1-BUNS [1] [fold]	fold more co-precipitated than in cells transfected with pTM1-BUNS [2] [fold]
Bunyamwera virus (BUNV) nucleoprotein (N) (from UniProt P16495 1-233) (natural protein)	5	–
V5-tagged BUNV L protein expressed from a transfected cDNA construct (from UniProt P20470 1-2238)	–	8
